# Measurements from article PMC6312923 (Life Science Alliance, 2018).
# Where no end group is shown, it is not given here. TAMRA = carboxytetramethylrhodamine
# B1: Cdt2^390–730: C-terminal Cdt2 construct (protein)
# chain: LNRGLEEKPGGDKLSTVGWASQKKKESRPGLVTVTSSQSTPAKAPRAKCNPSNSSPSSAACAPSCAGDLPLPSNTPTFSIKTSPAKARSPINRRGSVSSVSPKPPSSFKMSIRNWVTRTPSSSPPITPPASETKIMSPRKALIPVSQKSSQAEACSESRNRVKRRLDSSCLESVKQKCVKSCNCVTELDGQVENLHLDLCCLAGNQEDLSKDSLGPTKSSKIEGAGTSISEPPSPISPYASESCGTLPLPLRPCGEGSEMVGKENSSPENKNWLLAMAAKRKAENPSPRSPSSQTPNSRRQSGKKLPSPVTITPSSMRKICTYFHRKSQEDFCGPEHSTEL
# modifications: left off: 3FLAG, N-terminal, kept | 3NLS, N-terminal, state not stated | myc, N-terminal, state not stated
# notes: C-terminal Cdt2 construct
# B2: Cdt2^1–700: Cdt2 with the C-terminal 30 amino acids deleted (protein)
# chain: MLFNSVLRQPQLGVLRNGWSSQYPLQSLLTGYQCSGNDEHTSYGETGVPVPPFGCTFSSAPNMEHVLAVANEEGFVRLYNTESQSFRKKCFKEWMAHWNAVFDLAWVPGELKLVTAAGDQTAKFWDVKAGELIGTCKGHQCSLKSVAFSKFEKAVFCTGGRDGNIMVWDTRCNKKDGFYRQVNQISGAHNTSDKQTPSKPKKKQNSKGLAPSVDFQQSVTVVLFQDENTLVSAGAVDGIIKVWDLRKNYTAYRQEPIASKSFLYPGSSTRKLGYSSLILDSTGSTLFANCTDDNIYMFNMTGLKTSPVAIFNGHQNSTFYVKSSLSPDDQFLVSGSSDEAAYIWKVSTPWQPPTVLLGHSQEVTSVCWCPSDFTKIATCSDDNTLKIWRLNRGLEEKPGGDKLSTVGWASQKKKESRPGLVTVTSSQSTPAKAPRAKCNPSNSSPSSAACAPSCAGDLPLPSNTPTFSIKTSPAKARSPINRRGSVSSVSPKPPSSFKMSIRNWVTRTPSSSPPITPPASETKIMSPRKALIPVSQKSSQAEACSESRNRVKRRLDSSCLESVKQKCVKSCNCVTELDGQVENLHLDLCCLAGNQEDLSKDSLGPTKSSKIEGAGTSISEPPSPISPYASESCGTLPLPLRPCGEGSEMVGKENSSPENKNWLLAMAAKRKAENPSPRSPSSQTPNSRRQSGKKLPSPVT
# modifications: left off: HA, N-terminal, state not stated | 3FLAG, C-terminal, kept
# notes: Cdt2 with the C-terminal 30 amino acids deleted
# B3: Cdt1^PIP-TAMRA (1–14) (peptide)
# peptide: MEQRRVTDFFARRR
# modifications: also: TAMRA label, position not given here
# notes: Cdt1 N-terminal PIP box peptide, residues 1-14; also called Cdt1 PIP box peptide; source: synthetic peptide (in-house Fmoc synthesis)
# B4: Cdt2^1–417: Cdt2 N-terminal WD40 domain construct (protein)
# chain: MLFNSVLRQPQLGVLRNGWSSQYPLQSLLTGYQCSGNDEHTSYGETGVPVPPFGCTFSSAPNMEHVLAVANEEGFVRLYNTESQSFRKKCFKEWMAHWNAVFDLAWVPGELKLVTAAGDQTAKFWDVKAGELIGTCKGHQCSLKSVAFSKFEKAVFCTGGRDGNIMVWDTRCNKKDGFYRQVNQISGAHNTSDKQTPSKPKKKQNSKGLAPSVDFQQSVTVVLFQDENTLVSAGAVDGIIKVWDLRKNYTAYRQEPIASKSFLYPGSSTRKLGYSSLILDSTGSTLFANCTDDNIYMFNMTGLKTSPVAIFNGHQNSTFYVKSSLSPDDQFLVSGSSDEAAYIWKVSTPWQPPTVLLGHSQEVTSVCWCPSDFTKIATCSDDNTLKIWRLNRGLEEKPGGDKLSTVGWASQKKKESR
# modifications: left off: HA, N-terminal, state not stated | 3FLAG, C-terminal, kept
# notes: Cdt2 N-terminal WD40 domain construct
# B5: Cdt2^PIP-TAMRA (704–717) (peptide)
# peptide: {TAMRA}-SSMRKICTYFHRKS
# notes: human Cdt2 PIP box, residues 704-717; also called Cdt2 PIP box peptide; source: synthetic peptide (in-house Fmoc synthesis)
# B6: Cdt2^600–730: C-terminal 130 amino acids of Cdt2 (protein)
# chain: KDSLGPTKSSKIEGAGTSISEPPSPISPYASESCGTLPLPLRPCGEGSEMVGKENSSPENKNWLLAMAAKRKAENPSPRSPSSQTPNSRRQSGKKLPSPVTITPSSMRKICTYFHRKSQEDFCGPEHSTEL
# modifications: left off: 3FLAG, N-terminal, kept | 3NLS, N-terminal, state not stated | myc, N-terminal, state not stated
# notes: C-terminal 130 amino acids of Cdt2
# Assays:
# [1] = tested on: CRL4Cdt2 (WT): Cdt2-3FLAG with Cul4A, DDB1, Rbx1;PCNA (Homo sapiens;Homo sapiens); assay: pull-down (DNA beads, Western blot); conditions: PCNA preloaded by RFC with ATP; no Cdt1; 408 fmol Cdt2 on […] fmol PCNA trimer; biotin-dT in the second strand; single nick by Nb.BbvCI; HBS: 10 mM Hepes pH 7.4, 0.15 M NaCl, 10 mM MgCl2, 0.2 mM EDTA, 0.05% Tween 20; loading with 2 mM ATP, 37 C 1 h; Cdt1/CRL4Cdt2 binding 4 C 1 h
# [2] = tested on: Cdt1-3FLAG;PCNA (Homo sapiens;Homo sapiens); assay: pull-down (DNA beads, Western blot); conditions: PCNA preloaded by RFC with ATP; 301 fmol Cdt1 on […] fmol PCNA trimer; biotin-dT in the second strand; single nick by Nb.BbvCI; HBS: 10 mM Hepes pH 7.4, 0.15 M NaCl, 10 mM MgCl2, 0.2 mM EDTA, 0.05% Tween 20; loading with 2 mM ATP, 37 C 1 h; Cdt1/CRL4Cdt2 binding 4 C 1 h
# free PCNA = assay: Binding of free PCNA to Cdt1 or CRL4^Cdt2 on anti-FLAG beads; design: species or system human; conditions: 2 h at 4°C, Western blotting, three independent experiments
# Excerpt: FLAG-tagged Cdt1 (Cdt1-3FLAG) and CRL4^Cdt2 (Cdt2-3FLAG) were expressed in insect cells and purified on anti-FLAG resin (Fig 5A).
# [3] = biological target: T1, full-length human PCNA (recombinant, for peptide binding and crystallography) (human, UniProt P12004 1-261); assay: fluorescence polarisation; 1 nM labelled peptide mixed with PCNA at 0 to 2 μM; 10 mM Hepes pH 7.5, 125 mM NaCl, 0.5 mM TCEP; non-binding 96-well plates; triplicates; conditions: both partners purified
# T1 construct: PCNA, human, full length; also called recombinant PCNA; source: E. coli Bl21 (DE3), purified as described (Hibbert & Sixma, 2012)
# DDB1, Cul4A = assay: Co-immunoprecipitation of DDB1 / Cul4A with FLAG-tagged Cdt2 constructs; format: cell-based, human; conditions: anti-FLAG IP, cross-linked cells
# Excerpt: (§1) Before cell lysate preparation, cells were cross-linked.
# (§2) Figure 3. […] HEK293 cells were transfected with plasmids expressing the indicated Cdt2 fused to a C-terminal FLAG tag, cross-linked, and precipitated with anti-FLAG antibodies (arrows). […] The bands in the blank lanes for Cul4A blotting correspond to the cross-reacting bands to pre-stained marker. […] HEK293 cells were transfected with the indicated plasmids and treated as in A. * indicates nonspecific bands derived from IgGs. (C) A schematic drawing of the Cdt2 domain structure highlighting the C-terminal PIP box and a sequence alignment of PIP boxes in various organisms. The alanine-changed PIP box mutant of Cdt2 was shown (PIP-3A) together with Cdt1 PIP box. (D) HEK293 cells were transfected with Cdt2^WT or PIP box mutant (Cdt2^PIP-3A) C-terminally fused to a FLAG tag, treated as in B, and Cdt2 was precipitated with anti-FLAG resin.
# (§3) Control or Cdt2-FLAG expressing 293 cells that were UV irradiated (50 J/m^2), or not UV irradiated, or in the middle S phase (5 h after release from aphidicolon arrest) were fixed with 0.02% formaldehyde for 10 min, lysed using 0.1% Triton X-100-containing modified cytoskeleton (mCSK) buffer (10 mM Pipes, pH 7.9, 100 mM NaCl, 300 mM sucrose, 0.1% [vol/vol] Triton X-100, 1 mM phenylmethylsulfonyl fluoride, 10 mM β-glycerophosphate, 1 mMNa3VO4, 10 mM NaF), and then sonicated. After centrifugation (120,000g, Beckman Type 45Ti rotor, for 20 min at 4°C), the supernatants were mixed with anti-FLAG antibody-conjugated magnetic beads (M8823; Sigma-Aldrich) for 1 h at 4°C to obtain immunoprecipitates. The precipitate was washed with ice-cold 0.1% Triton X-100 containing mCSK buffer and subsequently suspended in SDS sample buffer.
# PCNA = assay: Co-immunoprecipitation of PCNA with FLAG-tagged Cdt2 constructs; format: cell-based, human; conditions: cross-linked cells, 3FLAG fusions, no UV
# Excerpt: as §1, §2, §3
# [4] = tested on: MCF7 cells, DNA-damage (CPD) sites; assay: Recruitment of GFP-Cdt2 constructs to DNA-damage sites in MCF7 cells; format: cell-based, human; conditions: MCF7, UV-C 50 J/m^2, GFP fusions; two independent experiments
# Excerpt: Figure 2. The C-terminus of Cdt2 mediates Cdt2 recruitment to sites of damage. (A) A schematic drawing of the domain structure of Cdt2 and constructs used. (B) The C-terminal, but not the N-terminal, part of Cdt2 mediates recruitment to DNA damage sites. MCF7 cells transfected with the indicated plasmids were locally UV-C irradiated (50 J/m^2 through 5 μm pore diameter micropore filters), and recruitment of each Cdt2 construct to sites of damage was examined by staining with α-CPD antibody and GFP signal.
# For Western blotting, whole-cell lysates were prepared by lysing cell pellets directly in SDS–PAGE buffer. For immunofluorescence, U2OS or HEK293 cells were fixed in 4% paraformaldehyde (PFA; WAKO) for 10 min, permeabilized in 0.25% (vol/vol) Triton X-100 in PBS, and stained with the indicated antibodies as described previously. […] For cyclobutane pyrimidine dimer (CPDs) staining, MCF7 and HeLa cells were fixed in 4% PFA for 10 min, permeabilized in 0.3% Triton X-100 in PBS, and then incubated in 0.5 N NaOH for 5 min for DNA denaturation before immunofluorescence. Alexa488-conjugated anti-mouse and […] anti-rabbit antibodies were used as secondary antibodies with Hoechst 33258 to visualize DNA. […] Protein levels were analysed by ImageJ software.
# We used a method to induce DNA photoproducts within localized areas of the cell nucleus as described in Ishii et al (2010). To perform micropore UV irradiation, cells were cultured on cover slips, washed twice with PBS, and subsequently covered with an isopore polycarbonate membrane filter (Millipore) with a pore size of either 3 or 5 μm in diameter, and irradiated. UV irradiation was achieved using a UV lamp (SUV-16, As One, Japan) with a dose rate of 0.4 J/m^2·s, which was monitored with a UV radiometer (UVX Radiometer, UVP) at 254 nm, or with a UV box equipped with a UV-C lamp monitored with a VLX-3W radiometer (Vilber Lourmat) at 254 nm (CX-254 sensor). The filter was removed and cells were either fixed or cultured for the indicated time before fixation, and processed for immunofluorescence. […]
# T1 sequence (P12004 whole entry): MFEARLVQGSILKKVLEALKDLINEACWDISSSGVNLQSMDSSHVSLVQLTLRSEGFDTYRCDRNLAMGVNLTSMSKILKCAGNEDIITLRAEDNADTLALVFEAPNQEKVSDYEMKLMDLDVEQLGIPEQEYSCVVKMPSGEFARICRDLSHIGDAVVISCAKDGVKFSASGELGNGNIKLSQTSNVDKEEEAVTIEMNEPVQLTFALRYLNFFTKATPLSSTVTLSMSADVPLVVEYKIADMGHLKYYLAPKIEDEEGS
Molecule,Kd [3],interaction with PCNA (anti-FLAG IP) (PCNA),other results
ncDNA beads (singly nicked circular pBluescript II KS(-)),,,binding signal (Cdt2 per PCNA trimer) [1]: 2.57; binding signal (Cdt1 per PCNA trimer) [2]: 2.04
"CRL4^Cdt2: E3 ligase complex of Cdt2-3FLAG, DDB1, HA-Cul4, His-myc-Rbx1, purified from insect cells",,,binding of free PCNA to protein beads (free PCNA): much less
RRQTSMTDFYHSKR (p21 PIP box peptide) [p21 PIP box peptide],36 ± 2 nM,,
B1,,still binds to PCNA,"binding to DDB1 (and Cul4A) (DDB1, Cul4A): lost its ability to bind DDB1; recruitment to DNA-damage sites [4]: efficiently recruited to DNA-damage sites"
B2,,loss of interaction with PCNA,
B3,7200 ± 200 nM,,
B4,,lost most of its affinity for PCNA,"binding to DDB1 (and Cul4A) (DDB1, Cul4A): still able to bind DDB1; recruitment to DNA-damage sites [4]: no evidence for recruitment"
B5,57 ± 3 nM,,
B6,,sufficient to mediate the interaction with PCNA,
